Data published in patent US20130195884A1, “NOVEL MODULATORS OF TRAIL SIGNALLING” (Deutsches Krebsforschungszentrum, priority 2009, published 2013).

Tests used:
[1] = test system: freshly isolated human hepatocytes; details: cited from earlier work
[2] = cited from earlier work
[3] = test system: low-grade Non-Hodgkin Lymphoma (NHL); details: combination with rituximab, phase Ib, cited from earlier work
HeLa cells = assay: Titration of TRAIL-induced apoptosis, cell viability by ATP quantification (CellTiterGlo); assay type: cell-based, human
Protocol: FIG. 2: Titration curve for TRAIL-induced apoptosis. HeLa cells were stimulated with 0.001 to 1000 ng/ml TRAIL, followed by analysis of cell viability by the quantification of ATP (CelliterGlo® assay).
FIG. 5. TRAIL-induced cell death in HeLa cells can be rescued by siRNAs. (A) TRAIL induces apoptosis in HeLa cells. Membrane blebbing was observed after 1-2 hours and a complete loss of viable cells was detected after 24 hours. (B) The killing activity of TRAIL in HeLa cells is concentration dependent. (C) Silencing the TRAIL-R1 receptor and caspase-8 with siRNAs, rescued the apoptotic effect to 70% and 100% viability of untreated cells, respectively.
Cell viability was quantified by the measurement of ATP (CeIlTiterGlo® Luminescent Cell Viability Assay) or the quantification of mitochondrial activity (MTT assay). CellTiterGlo® Luminescent Cell Viability Assay was performed according to manufacturer's instructions. Briefly, 24 h after TRAIL treatment, CellTiterGlo® reagent was added to the medium. After mixing and shaking for 2 min, the luminescent signal was measured using Mithras LB 940 (Berthold Technologies, Bad Wildbad, Germany).
To determine the exact sensitivity to TRAIL-induced apoptosis, a dose-response curve ranging from 0.01 to 1000 ng/ml TRAIL was performed. Cell viability was quantified 24 h later by the CellTiterGlo® assay as this method is very sensitive, reproducible and applicable for high-throughput approaches. […] Maximum cell death is reached at TRAIL concentrations around 100 ng/ml (cf. FIG. 2).
The death-inducing ligand TRAIL triggers apoptosis in HeLa cells shortly after application (FIG. 5 A). During this process, the cytoplasm shrinks, the DNA condensates and the cell membrane starts blebbing, releasing fragments of the cell in a controlled manner (reviewed in Yasuhara 2007). […] This process was also monitored with a cell-based viability assay, quantifying cellular ATP-levels. TRAIL induced cell death in HeLa cells in a dose-dependant manner (FIG. 5 B).

HIS-TRAIL: soluble TRAIL with an N-terminal polyhistidine tag
Toxicity on freshly isolated human hepatocytes [1]: considerable toxicity

rhApo2L/TRAIL: untagged version of recombinant soluble TRAIL, co-developed by Genentech and Amgen
Toxicity in patients receiving the single agent [2]: no dose-limiting toxicity (DLT) or severe adverse effects (SAEs)
Serious adverse events of the combination [3]: two SAEs possibly related to the combination
Tumor response assessment ([3]; eight patients with low-grade NHL): two showed complete response, one a partial response and five stable disease

B1: TRAIL: death-inducing ligand, recombinant TRAIL used to trigger apoptosis in HeLa cells (protein, UniProt P50591 1-281, looked up)
Tumor necrosis factor ligand …: MAMMEVQGGPSLGQTCVLIVIFTVLLQSLCVAVTYVYFTNELKQMQDKYSKSGIACFLKEDDSYWDPNDEESMNSPCWQVKWQLRQLVRKMILRTSEETISTVQEKQQNISPLVRERGPQRVAAHITGTRGRSNTLSSPNSKNEKALGRKINSWESSRSGHSFLSNLHLRNGELVIHEKGFYYIYSQTYFRFQEEIKENTKNDKQMVQYIYKYTSYPDPILLMKSARNSCWSKDAEYGLYSIYQGGIFELKENDRIFVSVTNEHLIDMDHEASFFGAFLVG
Membrane blebbing observed after (HeLa cells; HeLa cells after addition of TRAIL): 1 to 2 h
Viable cells left after TRAIL treatment (HeLa cells; HeLa cells, 100 ng/ml recombinant TRAIL, 24 hours): no viable cells were left
TRAIL concentration at which maximum cell death is reached (HeLa cells; HeLa cells, dose-response 0.01 to 1000 ng/ml TRAIL, viability after 24 h, CellTiterGlo): around 100 ng/ml
